Values joined by “and” are separate entries in the source; they are usually repeats but may differ in a detail not shown here. Equal entries are not always repeated.
B1: His‐tagged outer membrane protein 26 (OMP26) (natural protein)
chain: EEKIAFINAGYIFQHHPDRQAVADKLDAEFKPVAEKLAASKKEVDDKIAAARKKVEAKVAALEKDAPRLRQADIQKRQQEINKLGAAEDAELQKLMQEQDKKVQEFQAQNEKRQAEERGKLLDSIQTATNNLAKAKGYTYVLDANSIVFAVEGKDITEEVLKSIPASEKAQEKK
notes: OMP26, 26-kDa outer membrane protein of Haemophilus influenzae, homolog of E. coli Skp; Gene bought from GenScript; Predominantly trimers by native MS and SEC, with hexamers in low abundance; also called His‐tagged OMP26; source: E. coli BL‐21*, IPTG induced; not shown: His6, N-terminal, kept
B2: His‐tagged Protein D (non‐lipidated, N‐terminal signal sequence removed) (natural protein)
chain: CSSHSSNMANTQMKSDKIIIAHRGASGYLPEHTLESKALAFAQHSDYLEQDLAMTKDGRLVVIHDHFLDGLTDVAKKFPYRHRKDGRYYVIDFTLKEIQSLEMTENFETKDGKQAQVYPNRFPLWKSHFRIHTFEDEIEFIQGLEKSTGKKVGIYPEIKAPWFHHQNGKDIATETLKVLKKYGYDKKTDMVYLQTFDFNELKRIKTELLPQMGMDLKLVQLIAYTDWKETQEKDPKGYWVNYNYDWMFKPGAMAEVVKYADGVGPGWYMLVNKEESKPDNIVYTPLVKELAQYNVEVHPYTVRKDALPEFFTDVNQMYDALLNKSGATGVFTDFPDTGVEFLKGIK
notes: Gene bought from GenScript, in pET21a; also called PD; His‐tagged PD; source: E. coli BL‐21*, IPTG induced; not shown: His6, N-terminal, kept

Biological target: the molecule itself
Assay: native MS; nano-electrospray native MS with ion mobility (Waters Synapt G2); His-tagged proteins in 200 mM ammonium acetate pH 6.8, 5 μM; PD alone, OMP26 alone, 1:1 mixture

Protein	stoichiometry N
B1	3 and 6
B2	2 and 4
